The source of these data is US20250270343A1.

This assay has as its target unidentified GPNMB ligand(s) on the surface of SVEC4-10 cells. The experiment in a line: flow cytometry, soluble moGPNMB-Fc on SVEC4-10 cells, PE anti-IgG Fc secondary; thin-line histogram shifted right with a tail to about 10^4, thick-line control histogram near 0.

B1: soluble mouse GPNMB-Fc polypeptide (Fc of human IgG1 or mouse IgG2A, not specified for the assay) (Fc fusion, UniProt Q99P91 23-502, looked up, not shown: a dimerising Fc or GST)
chain: KRFRDVLGHEQYPDHMREHNQLRGWSSDENEWDEHLYPVWRRGDGRWKDSWEGGRVQAVLTSDSPALVGSNITFVVNLVFPRCQKEDANGNIVYEKNCRNDLGLTSDLHVYNWTAGADDGDWEDGTSRSQHLRFPDRRPFPRPHGWKKWSFVYVFHTLGQYFQKLGRCSARVSINTVNLTAGPQVMEVTVFRRYGRAYIPISKVKDVYVITDQIPVFVTMSQKNDRNLSDEIFLRDLPIVFDVLIHDPSHFLNDSAISYKWNFGDNTGLFVSNNHTLNHTYVLNGTFNLNLTVQTAVPGPCPPPSPSTPPPPSTPPSPPPSPLPTLSTPSPSLMPTGYKSMELSDISNENCRINRYGYFRATITIVEGILEVSIMQIADVPMPTPQPANSLMDFTVTCKGATPMEACTIISDPTCQIAQNRVCSPVAVDGLCLLSVRRAFNGSGTYCVNFTLGDDASLALTSTLISIPGKDPDSPLRAVN
On to B1, for which the PE-A subset (share of cells in the drawn gate, unit not given) was 70.1.
